Assay results reported in article PMC9780223 (2022).

Molecular target: purified recombinant PAPP-A free of STC2 (apo PAPP-A) (human, UniProt Q13219 82-1627, fluorescently labeled with Protein Labeling Kit RED-NHS (in MST))
Experiment: MST; in the presence of IGF2

B1: IGFBP4 with C-terminal His6 tag (natural protein)
chain: DEAIHCPPCSEEKLARCRPPVGCEELVREPGCGCCATCALGLGMPCGVYTPRCGSGLRCYPPRGVEKPLHTLMHGQGVCMELAEIEAIQESLQPSDKDEGDHPNNSFSPCSAHDRRCLQKHFAKIRDRSTSGGKMKVNGAPREDARPVPQGSCQSELHRALERLAASQSRTHEDLYIIPIPNCDRNGNFHPKQCHPALDGQRGKCWCVDRKTGVKLPGGLEPKGELDCHQLADSFRE
Binder B1 has a Kd of roughly 160 nM.
